Experimental data as given in paper PMC7670456.

B1: SMAD4: OGT overexpression (protein)
parent chain: MDNMSITNTPTSNDACLSIVHSLMCHRQGGESETFAKRAIESLVKKLKEKKDELDSLITAITTNGAHPSKCVTIQRTLDGRLQVAGRKGFPHVIYARLWRWPDLHKNELKHVKYCQYAFDLKCDSVCVNPYHYERVVSPGIDLSGLTLQSNAPSSMMVKDEYVHDFEGQPSLSTEGHSIQTIQHPPSNRASTETYSTPALLAPSESNATSTANFPNIPVASTSQPASILGGSHSEGLLQIASGPQPGQQQNGFTGQPATYHHNSTTTWTGSRTAPYTPNLPHHQNGHLQHHPPMPPHPGHYWPVHNELAFQPPISNHPAPEYWCSIAYFEMDVQVGETFKVPSSCPIVTVDGYVDPSGGDRFCLGQLSNVHRTEAIERARLHIGKGVQLECKGEGDVWVRCLSDHAVFVQSYYLDREAGRAPGDAVHKIYPSAYIKVFDLRQCHRQMQQQAATAQAAAAAQAAAVAGNIPGPGSVGGIAPAISLSAAAGIGVDDLRRLCILRMSFVKGWGPDYPRQSIKETPCWIEIHLHRALQLLDEVLHTMPIADPQPLD
B2: SMAD4: thiamet-G (protein)
parent chain: B1 parent chain
B3: SMAD4: T63V (protein)
parent chain: B1 parent chain
B4: SMAD4: QM (protein)
parent chain: B1 parent chain
B5: SMAD4: OSMI-1 (protein)
parent chain: B1 parent chain

Assays:
[1] = anti-FLAG IP, anti-phospho-threonine blot, HEK293, EGF; settings: glycan gained; control: no OGT overexpression
[2] = immunoblot of endogenous SMAD4, A549; settings: control: mock / control siRNA / DMSO / 5 mM glucose
[3] = CHX chase, immunoblot, A549
[4] = denaturing anti-FLAG IP, HA-Ub blot, HEK293, MG132; settings: glycan lost; control: FLAG-SMAD4 WT

Protein	expression_or_secretion ([2]; glycan gained)	other: polyubiquitination [4]	also measured
B1	increases		other: threonine phosphorylation [1]: decreases
B2	increases		degradation_or_half_life ([3]; glycan gained, control: untreated (endogenous SMAD4)): increases
B3		increases	degradation_or_half_life ([3]; glycan lost, control: FLAG-SMAD4 WT): decreases
B4		increases	
B5			expression_or_secretion ([2]; glycan lost): decreases
